Measurements reported in patent US20210155689A1 (SHANGHAI PHARMAEXPLORER, published 2021).
Primed or numbered codes have the meaning given here. No end group written: not given here. Biotin′ = biotin label at the C-terminus

How the values were obtained:
[1] = biological target: human LAG-3 on cells (HEK293-hLAG-3 stable cell line) (human) (UniProt P18627); assay: FACS, HEK293-hLAG-3, antibody 8 nM
[2] = biological target: human LAG-3 on cells (HEK293-hLAG-3 stable cell line) (human) (UniProt P18627); assay: FACS, HEK293-hLAG-3, antibody 1.6 nM
[3] = biological target: human LAG-3 on cells (HEK293-hLAG-3 stable cell line) (human) (UniProt P18627); assay: FACS, HEK293-hLAG-3, antibody 40.000 nM
[4] = biological target: LAG-3-hFc protein (human LAG-3 extracellular region with hFc tag) (human) (UniProt P18627); assay: ELISA, inhibition of LSECtin-His binding to coated LAG-3-hFc, antibody 0.013 nM, replicate 1
[5] = biological target: LAG-3-hFc protein (human LAG-3 extracellular region with hFc tag) (human) (UniProt P18627); assay: ELISA, inhibition of LSECtin-His binding to coated LAG-3-hFc, antibody 0.013 nM, replicate 2
[6] = biological target: T1, human LAG-3 ECD (antigen protein of the affinity test) (human, UniProt P18627 23-450); assay: SPR, CM5 chip, antibody captured by anti-human Fc IgG, antigen in flow, 1:1 fit
T1 sequence: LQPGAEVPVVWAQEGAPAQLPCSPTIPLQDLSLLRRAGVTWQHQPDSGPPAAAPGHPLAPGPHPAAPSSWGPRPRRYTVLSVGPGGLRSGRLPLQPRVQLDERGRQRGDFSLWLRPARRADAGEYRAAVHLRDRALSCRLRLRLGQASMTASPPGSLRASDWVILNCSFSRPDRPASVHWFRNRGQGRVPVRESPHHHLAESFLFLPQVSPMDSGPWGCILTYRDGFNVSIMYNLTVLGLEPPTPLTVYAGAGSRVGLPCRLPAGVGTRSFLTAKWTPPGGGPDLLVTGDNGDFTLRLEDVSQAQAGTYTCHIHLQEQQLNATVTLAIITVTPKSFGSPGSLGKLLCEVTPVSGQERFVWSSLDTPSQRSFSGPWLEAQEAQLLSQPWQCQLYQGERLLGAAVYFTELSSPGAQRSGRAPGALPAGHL
Experimental: First, anti-human Fc IgG was immobilized on the surface of the CM5 chip to 6000-10000 RU by amino coupling method, with FC1 as the reference channel. The coupling process was as follows: a freshly prepared 1:1 mixture of 50 mM NHS and 200 mM EDC was activated for 7 minutes, then injected with 10-50 ug/ml anti-human Fc IgG diluted in 10 mM sodium acetate ph5.0 buffer. The remaining activated sites were blocked with 1M ethanolamine. Then, HBS-EP+ buffer was used to dilute the antibody to be tested to 5 ug/ml (adjustable according to the capture level) and the antibodies were captured on the chip at a flow rate of 10 ul/min to obtain a response value of about 100˜300 RU. Then the antigen protein was diluted to 100 nM (the highest concentration was tentatively 100 nM), and flew through the chip surface at a flow rate of 30 ul/min. If enough signal value was obtained, the antigen-protein was diluted by several concentration gradients, and flew through the chip surface respectively. At the end of each cycle, the chip surface was regenerated with 10 mM Glycine at pH 1.5. The kinetic rate constant needed to be subtracted from the blank control, and the data was fitted with the global fit analysis method 1:1 combination model. The dissociation equilibrium rate constant (KD) was calculated according to the following formula: KD=kd/ka.

[7] = biological target: T2, LAG-3-hFc protein (human LAG-3 extracellular region with hFc tag) (human, UniProt P18627 23-450); assay: FACS, inhibition of LAG-3-hFc binding to MHC II on Raji cells, antibody 7.407 nM
T2 construct: also called hLAG-3-hFc; LAG-3 protein; not shown: human IgG Fc fragment (hFc) of the pCpC vector
T2 sequence: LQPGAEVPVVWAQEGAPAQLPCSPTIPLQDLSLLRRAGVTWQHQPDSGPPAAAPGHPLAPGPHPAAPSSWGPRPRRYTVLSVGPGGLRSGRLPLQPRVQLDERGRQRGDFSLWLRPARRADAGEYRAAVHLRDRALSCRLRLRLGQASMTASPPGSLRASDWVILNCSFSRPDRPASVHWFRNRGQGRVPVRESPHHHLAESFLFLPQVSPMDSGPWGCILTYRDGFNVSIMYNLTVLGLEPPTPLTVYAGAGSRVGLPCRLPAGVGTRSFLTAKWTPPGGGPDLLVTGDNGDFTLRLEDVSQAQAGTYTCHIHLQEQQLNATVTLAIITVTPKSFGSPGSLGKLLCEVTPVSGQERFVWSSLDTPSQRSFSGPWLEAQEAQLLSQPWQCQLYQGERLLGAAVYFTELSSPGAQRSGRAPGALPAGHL
Experimental: The FACS reaction plate incubating the Raji cells was centrifuged to discard the supernatant. The above mixture was added as 100 μl per well to Raji cells and incubated on ice for 1-2 hours. The plate was washed twice with blocking solution (PBS, 2% fetal bovine serum) by centrifugation, added with 100 microliters of fluorescent (Alexa 488)-labeled secondary antibodies per well, and incubated on ice for 1.0 hours. The plate was washed 2-3 times by centrifugation with blocking solution (PBS, 2% fetal bovine serum), added with 100 microliters of PBS per well to suspend cells, and detected using FACS (FACS Calibur, BD) and the results were analyzed. Wherein, the IgG control was murine IgG, and the data in the table is the inhibition rate (%).

PHPAAPSSWGPRK-Biotin = biological target: T3, PHPAAPSSWGPRK-Biotin (human); assay: peptide scanning ELISA, biotin peptide on streptavidin
T3 construct: Overlapping peptide of the outer loop of human LAG-3; also called LAG-3 Extra cyclic peptide
T3 peptide: PHPAAPSSWGPRK-{Biotin′}
Experimental: (§1) Fifteen overlapping peptides including the full length of the outer loop sequence were prepared and biotin was coupled to each C-terminus. Enzyme-linked immunosorbent assay (ELISA) was used to detect the binding of antibodies to these peptides. Streptavidin (sigma, Cat #M5432) was diluted with PBS to a final concentration of 1.0 μg/ml, and then added as 100 μl per well to a 96-well ELISA plate. The plate was sealed with plastic film and incubated overnight at 4° C. The plate was washed 2 times with the plate washing solution (PBS+0.01% Tween20) on the next day, and added with the blocking solution (PBS+0.01% Tween20+1% BSA) and blocked at room temperature for 1-2 hours. The blocking solution was poured off, and biotinylated peptides was added to a final concentration of 1 ug/ml, as 100 ul per well to the 96-well ELISA plate, incubated at 37° C. for 1-2 hours, then washed with plate washing solution (PBS+0.01% Tween20)2-3 times. Then the antibody samples to be tested were incubated as 100 μl per well at 37° C. for 1-2 hours, and then the plate was washed 2-3 times with a plate washing solution (PBS+0.01% Tween20). HRP (horseradish peroxidase) labeled secondary antibody was added, and the plate was incubated at 37° C. for 1-2 hours, and washed 2-3 times with a plate washing solution (PBS+0.01% Tween20). 100 μl of TMB substrate was added to each well. After incubated at room temperature for 15-30 minutes, the plate was added with 100 μl of stop solution (1.0N HCl) to each well.

HPAAPSSWGPRPK-Biotin = biological target: T4, HPAAPSSWGPRPK-Biotin (human); assay: as above
T4 construct: Overlapping peptide of the outer loop of human LAG-3; also called LAG-3 Extra cyclic peptide
T4 peptide: HPAAPSSWGPRPK-{Biotin′}
Experimental: as §1

Work on hIgG control (antibody) yielded a Mean fluorescence intensity [1] of 4, a Mean fluorescence intensity [2] of 4 and a Mean fluorescence intensity [3] of 3.1. The Inhibition rate (%) [4] was -12.9% and the Inhibition rate (%) [5] was -15.7%.

B1: 556F6B8 mouse-human chimeric antibody (antibody, V domains shown)
VH: RVQLKQSGPGLVQPSQSLSITCTVSGFSLIKYGVHWVRQSPGEGLEWLGVIWRGGITDYNAAFMSRLSITKDNSKSQVFFKMNSLQADDTAIYYCAKWDGPLAMDYWGQGTSVTVSS
VL: DIVMTQSHKFLSTSVGDRVSITCKASQDVGTTVAWYQQKPGQSPKLLIYWASTRHTGVPDRFTGSGSGTDFTLTISNVQSEDLADYFCQQYSSYPYTFGGGTKLEIK
notes: also called mAb123-556F6B8; 556F8B8
With B1 the Kd [6] was 3.39 nM, the koff [6] was 0.000455 s⁻¹ and the kon [6] was 134000 M⁻¹ s⁻¹. For the same molecule, the “Inhibition rate (%)” value [7] was 82.7%.

B2: 105F1E10 mouse-human chimeric antibody (antibody, V domains shown)
VH: EVQLQQSGPELVKPGASVKMSCRASGYTFTDFKMHWMKQSHGKSLEWIGYIAPNNGGTAYNQKFRGKATLTVNESSNTAYMELRSLTSEDSAVYYCVDWDDVDYWGQGTTLTVSS
VL: DIKMTQSPSSMYASLGERVTITCKASQDINSYLSWFQQKSGKSPKTLIYRANRLVDGVPSRFSGSGSGQDYSLTISSLEYEDMGIYYCLQYVEFPLTFGAGTKLELK
notes: also called mAb009-105F1E10
In the case of B2, the “Inhibition rate (%)” value [7] is reported as 67%.

B3: 405B8H3 mouse-human chimeric antibody (antibody, V domains shown)
VH: QVQLQQSGAELVRPGASVTLSCKASGYTFTDYEMHWVKQTPVHGLEWIGATDPETGNSAYNQKFKGKAIMTADKSSSTAYMELRSLTSEDSAVYYCISTGWNDWGQGTSLTVSS
VL: DIKMTQSPSSMYASLGERVTITCKASQDINSYLSWFQQKPGKSPKTLIYRADRLLDGVPSRFSGSGSGQDYSLTISSLEYGDMGIYYCLQYDEFPYTFGGGTKLEIK
notes: also called mAb103-405B8H3
Work on B3 yielded a Kd [6] of 2.58 nM, a koff [6] of 0.000165 s⁻¹ and a kon [6] of 64000 M⁻¹ s⁻¹. For the same molecule, the “Inhibition rate (%)” value [7] was 95.1%.

B4: 409B11E12 mouse-human chimeric antibody (antibody, V domains shown)
VH: QVQLQQSGAELVRPGASVTLSCKASGYTFTDYEMHWVKQTTVHGLEWIGATDPETSYSAYNQKFKGKAILTADKSSSTAYMELRSLTSEDSAVYYCIATGWNDWGQGTSLTVSS
VL: DLKMTQSPSSMYASLGERVTITCKASQDINSYLSWFQQKPGKSPKTLIYRANRLLDGVPSRFSGSGSGQDYSLTISSLEYEDMGIYYCLQYDEFPYTFGGGTKLEIK
notes: also called mAb104-409B11E12
For B4, the “Inhibition rate (%)” value [7] was 95.1%.

B5: 409D4E10 mouse-human chimeric antibody (antibody, V domains shown)
VH: QVQLQQSGAELVRPGASVTLSCKASGNTFTDYEMHWVKQTPVHGLEWIGATDPETDNTAYNQKFKGKAILTTDKSSSTAYMELRSLTSEDSAVYYCITSGWNDWGQGTSLTVSS
VL: DIKMTQSPSSMYASLGERVTITCKASQDINSYLSWFQQKPGKSPKTLIYRANRLLDGVPSRFSGSGSGQDYSLTISSLEYEDMGIYYCLQYNEFPYTFGGGTKLEIK
notes: also called mAb112-409D4E10
In the case of B5, the “Inhibition rate (%)” value [7] is reported as 94.7%.

B6: 105F1E10 (mouse antibody purified from hybridoma) (antibody, V domains shown)
VH: EVQLQQSGPELVKPGASVKMSCRASGYTFTDFKMHWMKQSHGKSLEWIGYIAPNNGGTAYNQKFRGKATLTVNESSNTAYMELRSLTSEDSAVYYCVDWDDVDYWGQGTTLTVSS
VL: DIKMTQSPSSMYASLGERVTITCKASQDINSYLSWFQQKSGKSPKTLIYRANRLVDGVPSRFSGSGSGQDYSLTISSLEYEDMGIYYCLQYVEFPLTFGAGTKLELK
notes: also called mAb009-105F1E10
B6: binds (PHPAAPSSWGPRK-Biotin); binds (HPAAPSSWGPRPK-Biotin).
